The experiment concerns the target T1, full-length HA-epitope tagged huBUB1 (plasmid p396-1) (human, UniProt O43683 1-1085).
T1 construct: In vitro translated; precipitated with anti-HA monoclonal antibody and Protein G beads; also called HA-huBUB1; HA-BUB1; not shown: triple HA tag
The experiment in a line: anti-HA co-immunoprecipitation of in vitro translated proteins, BUB3 present. From the text:
³⁵S-methionine-labeled proteins and polypeptides were then produced from these plasmids by coupled in vitro transcription/translation reactions (IVT), as described above. IVT reactions were immunoprecipitated (IP), using either anti-FLAG agarose beads (Kodak IBI) or anti-HA monoclonal antibody combined with Protein G beads (BMB). Beads were extensively washed as previously described to ensure the removal of non-specifically-associated proteins, including relatively stringent washes in 2 M NaCl buffer. Bound proteins were released from beads by heating samples in SDS-sample buffer and were analyzed on 10-20% SDS-PAGE gels. Aliquots of initial ³⁵S-labeled translation reactions were analyzed as well.

B1: wild-type huBUB1 (full-length, plasmid p385-1) (enzyme)
chain: MDTPENVLQMLEAHMQSYKGNDPLGEWERYIQWVEENFPENKEYLITLLEHLMKEFLDKKKYHNDPRFISYCLKFAEYNSDLHQFFEFLYNHGIGTLSSPLYIAWAGHLEAQGELQHASAVLQRGIQNQAEPREFLQQQYRLFQTRLTETHLPAQARTSEPLHNVQVLNQMITSKSNPGNNMACISKNQGSELSGVISSACDKESNMERRVITISKSEYSVHSSLASKVDVEQVVMYCKEKLIRGESEFSFEELRAQKYNQRRKHEQWVNEDRHYMKRKEANAFEEQLLKQKMDELHKKLHQVVETSHEDLPASQERSEVNPARMGPSVGSQQELRAPCLPVTYQQTPVNMEKNPREAPPVVPPLANAISAALVSPATSQSIAPPVPLKAQTVTDSMFAVASKDAGCVNKSTHEFKPQSGAEIKEGCETHKVANTSSFHTTPNTSLGMVQATPSKVQPSPTVHTKEALGFIMNMFQAPTLPDISDDKDEWQSLDQNEDAFEAQFQKNVRSSGAWGVNKIISSLSSAFHVFEDGNKENYGLPQPKNKPTGARTFGERSVSRLPSKPKEEVPHAEEFLDDSTVWGIRCNKTLAPSPKSPGDFTSAAQLASTPFHKLPVESVHILEDKENVVAKQCTQATLDSCEENMVVPSRDGKFSPIQEKSPKQALSSHMYSASLLRLSQPAAGGVLTCEAELGVEACRLTDTDAAIAEDPPDAIAGLQAEWMQMSSLGTVDAPNFIVGNPWDDKLIFKLLSGLSKPVSSYPNTFEWQCKLPAIKPKTEFQLGSKLVYVHHLLGEGAFAQVYEATQGDLNDAKNKQKFVLKVQKPANPWEFYIGTQLMERLKPSMQHMFMKFYSAHLFQNGSVLVGELYSYGTLLNAINLYKNTPEKVMPQGLVISFAMRMLYMIEQVHDCEIIHGDIKPDNFILGNGFLEQDDEDDLSAGLALIDLGQSIDMKLFPKGTIFTAKCETSGFQCVEMLSNKPWNYQIDYFGVAATVYCMLFGTYMKVKNEGGECKPEGLFRRLPHLDMWNEFFHVMLNIPDCHHLPSLDLLRQKLKKVFQQHYTNKIRALRNRLIVLLLECKRSRK
notes: Full-length, untagged protein made in vitro (T7 TnT kit), 35S-methionine-labeled or unlabeled; also called full-length huBUB1; untagged huBUB1
On to B1, for which the binding result is listed as “no binding”.

Values taken from US20020123042A1 (CHIRON, published 2002).
